Data taken from patent US6939534B2, “Method to treat pulmonary hypoplasia in the newborn” (GenoMed, LLC, priority 2001, dated 2005).

What was measured:
[1] = animal models; cited from earlier work
[2] = tested on: type II pneumocytes; conditions: applied to type II pneumocytes in culture; cited from earlier work
[3] = Stability under acidification (pH 1-2) and heating (100° C. for 5 min); format: physicochemical; conditions: acidification to pH 1-2, heating to 100° C. for 5 min
Experimental: Since the EGF receptor can be activated by either EGF or transforming growth factor-α (TGF-α), and TGF-α is important in fetal development, and is also elaborated by the distal nephron, the EGF and TGF-α content of human amniotic fluid was measured, using specific radioimmunoassays and immunoprecipitation and immunoblotting. […] EGF, but not TGF-α, is stable under these conditions. […] In neonates, mature EGF (6 kD) is the predominant form in urine.
No significant concentration (<0.6 ng/ml) of TGF-α or EGF in human amniotic fluid was detectable directly by RIA or RRA.

[4] = inhaled; cited from earlier work

## epidermal growth factor [EGF]
[1]
  toxicity: no toxicity
[2]
  production of surfactant: stimulates production of surfactant
[3]
  stability: stable

## [N]=O [inhaled nitric oxide, nitric oxide]
[4]
  half-life: very short
